Test results reported in PMC9606039 (2022).

Target: receptor-binding domain (RBD) (residues 319-541) of the SARS-CoV-2 spike (S) protein (SARS-CoV-2, UniProt P0DTC2 319-541)
Assay: BLI

B1: LY-CoV1404 Fab (Fab, V domains shown)
VH: QITLKESGPTLVKPTQTLTLTCTFSGFSLSISGVGVGWLRQPPGKALEWLALIYWDDDKRYSPSLKSRLTISKDTSKNQVVLKMTNIDPVDTATYYCAHHSISTIFDHWGQGTLVTVSS
VL: QSALTQPASVSGSPGQSITISCTATSSDVGDYNYVSWYQQHPGKAPKLMIFEVSDRPSGISNRFSGSKSGNTASLTISGLQAEDEADYYCSSYTTSSAVFGGGTKLTVL
Work on B1 yielded a Kd of 0.0016 µM.

B2: 2-7 Fab (Fab, V domains shown)
VH: QITLKESGPTLVKPTQTLTLTCTFSGFSLSTSGVGVGWIRQPPGKALEWLALIYWDDDKRYSPSLKSRLTITKDTSKNQVVLTMTNMDPVDTATYYCAHHKIERIFDYWGQGTLVTVSS
VL: QSALAQPASVSGSPGQSITISCTGTSSDVGAYNYVSWYQQHPGKAPKLMIYDVSKRPSGVSNRFSGSKSGNTASLTISGLQAEDEADYYCSSYTTSSTVFGGGTKLTVL
For B2, the Kd was 0.038 µM.

B3: 2-7 D54N Fab (Fab, V domains shown)
VH: QITLKESGPTLVKPTQTLTLTCTFSGFSLSTSGVGVGWIRQPPGKALEWLALIYWNDDKRYSPSLKSRLTITKDTSKNQVVLTMTNMDPVDTATYYCAHHKIERIFDYWGQGTLVTVSS
VL: QSALAQPASVSGSPGQSITISCTGTSSDVGAYNYVSWYQQHPGKAPKLMIYDVSKRPSGVSNRFSGSKSGNTASLTISGLQAEDEADYYCSSYTTSSTVFGGGTKLTVL
B3 gave a Kd of over 5 µM.
